The labels stand for the following.
B3: Human IL-18BP (amino acids 31-194) (receptor)
chain: TPVSQTTTAATASVRSTKDPCPSQPPVFPAAKQCPALEVTWPEVEVPLNGTLSLSCVACSRFPNFSILYWLGNGSFIEHLPGRLWEGSTSRERGSTGTQLCKALVLEQLTPALHSTNFSCVLVDPEQVVQRHVVLAQLWAGLRATLPPTQEALPSSHSSPQQQGGLNDIFEAQKIEWHEHHHHHH
modifications: biotin on the AviTag (BirA ligase) where used biotinylated

Experiment [1] has as its target B3. Nature of the experiment: on-yeast binding isotherm, flow cytometry. For orientation: Flow cytometry measures light scatter and fluorescence of single cells or particles in a stream.
Experiment [2] concerns the target T1, Human Interleukin-18 (mature form), wild-type (human, UniProt Q14116 37-193).
T1 sequence: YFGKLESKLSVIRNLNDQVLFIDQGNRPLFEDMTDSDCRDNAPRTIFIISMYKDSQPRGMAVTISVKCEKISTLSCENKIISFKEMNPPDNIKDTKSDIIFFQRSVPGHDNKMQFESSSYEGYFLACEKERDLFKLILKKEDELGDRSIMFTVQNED
Nature of the experiment: cell-based or functional assay.

Experiment [3] addresses T2, Mouse IL-18BP (amino acids 31-194) (mouse, UniProt Q9Z0M9 29-193, biotin on the AviTag (BirA ligase)).
T2 construct: Secreted from Expi293 cells (H7 signal peptide); also called mIL-18BP
T2 sequence: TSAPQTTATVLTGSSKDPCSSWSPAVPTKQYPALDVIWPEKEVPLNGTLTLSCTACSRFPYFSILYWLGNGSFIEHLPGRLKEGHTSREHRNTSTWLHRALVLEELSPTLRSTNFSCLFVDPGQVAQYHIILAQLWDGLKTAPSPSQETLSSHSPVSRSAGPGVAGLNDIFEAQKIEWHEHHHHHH
The experiment in a line: SPR; end of the range tied to mA7 by Table 9. On the technique in general: In SPR one partner is held on a chip, and binding of the other changes the refractive index at the surface.

The target of experiment [4] is T3, Mouse IL-18Rα ectodomain (amino acids 19-329) (mouse, UniProt Q61098 19-329, biotin on the AviTag (BirA ligase)).
T3 construct: range 19-329; Secreted from Expi293 cells (H7 signal peptide); also called mIL-18Rα; Ra
T3 sequence: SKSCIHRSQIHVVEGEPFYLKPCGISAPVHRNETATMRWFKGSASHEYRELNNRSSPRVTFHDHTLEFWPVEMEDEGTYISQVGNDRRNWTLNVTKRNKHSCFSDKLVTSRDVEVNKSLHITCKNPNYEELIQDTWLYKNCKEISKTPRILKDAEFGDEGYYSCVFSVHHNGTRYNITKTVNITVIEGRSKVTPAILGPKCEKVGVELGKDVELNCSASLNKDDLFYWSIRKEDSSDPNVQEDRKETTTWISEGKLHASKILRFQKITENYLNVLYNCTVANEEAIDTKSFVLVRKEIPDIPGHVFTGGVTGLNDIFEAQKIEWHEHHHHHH
Nature of the experiment: SPR; end of the range tied to mE8 by Table 9.

In experiment [5] the target is T2, Mouse IL-18BP (amino acids 31-194). Nature of the experiment: SPR; KD ratio normalized to WT IL-18; lower end taken as mE8 (lowest ratio in Table 9).
Experiment [6] has the same target. The experiment in a line: SPR. How it is done:
Experiments were conducted using a Biacore T100 and carried out at 25° C. Biotinylated IL-18Rα or IL-18BP were immobilized onto a Biacore biotin capture chip (Series S CAP sensor chip, GE Healthcare) to yield an Rmax of ~50 RU (IL-18Rα) or ~10 RU (IL-18BP). Measurements were made with serial dilutions of the IL-18 variants in HEPES buffered Saline-P+ buffer (10 mM HEPES pH 7.4, 150 mM NaCl, 0.005% surfactant P20). The surface was regenerated by three 60-sec injections of regeneration buffer (¾ (v/v) 8 M guanidine hydrochloride with ¼ (v/v) 1 M sodium hydroxide). Experiments were performed in multiple channels simultaneously for increased observations. All data were analyzed with the Biacore T100 evaluation software version 2.0 with a 1:1 Langmuir binding model.
As the human and mouse interspecies cross-reactivity of IL-18 for IL-18Rα is poor, murine equivalents of the DR-IL-18 variants that could be used for studies in mice were created. Similar to the approach taken for hIL-18 above, a combinatorial library of mIL-18 variants randomizing a similar set of mIL-18Rα/mIL-18BP contact residues (Table 3) was created, yielding a library of 4 × 10⁸ transformants. Directed evolution was performed on this library similar to how it was performed with the human IL-18 library; the selection strategy is summarized in FIG. 10A.

Experiment [7] has the same target. The experiment in a line: SPR; end of the range tied to mC1 by Table 9.

Bounds are passed on as bounds.

B1: hA8 (ligand)
chain: YFGKLESRLSVIRNLNDQVLFIDQGNRPLFEDMTDSDCRDNAPRTIFIISKYKDKQPRAQAVTISVKCEKISTLSCENKIISFKEMNPPDNIKDTKSDIIFFQRDVPGHKHKMQFESSSYEGYFLACEKERDLFKLILKKEDELGDRSIMFTIQNED
notes: Human DR-IL-18 variant; display fusion not written
The molecule B1 came in with an EC50 in experiment [1] greater than 1 µM.

B2: hCS2 (ligand)
chain: YFGKLESKLSVIRNLNDQVLFIDQGNRPLFEDMTDSDCRDNAPRTIFIISTYKDKQPRAKAVTISVKCEKISTLSCENKIISFKEMNPPDNIKDTKSDIIFFQRDVPGHKHKMQFESSSYEGYFLACEKERDLFKLILKKEDELGDRSIMFTIQNED
notes: Human DR-IL-18 consensus variant; E. coli recombinant with C-terminal hexahistidine tag in SPR; fusion and tag not written
For B2, the EC50 in experiment [1] was greater than 1 µM. As for B3, in experiment [2], the “IC50 of recombinant IL-18BP on the IL-18 HEK-Blue reporter signal (hIL-18 fixed at 5 nM)” value amounted to 0.003 µM.

B4: mA7 (ligand)
chain: YFGRLHCTTAVIRNINDQVLFVDKRQPVFEDMTDIDQSASEPQTRLIIYAYGDNRVRGKAVTLSVKDSKMSTLSCKNKIISFEEMDPPENIDDIQSDLIFFQKRVPGHNKMEFESSLYEGHFLACQKEDDAFKLILKKKDENGDKSVMFTLTNLHQS
notes: Murine DR-IL-18 variant; recombinant with C-terminal hexahistidine tag in SPR; fusion and tag not written
B4: the equilibrium dissociation constant (Kd) in experiment [3] worked out at 14 µM.

B5: mE8 (ligand)
chain: NFGRLHCTTAVIRNINDQVLFVDKRQPVFEDMTDIDQSASEPQTRLIIYVYTDGRRRGKAVTLSVKDSKMSTLSCKNKIISFEEMDPPENIDDIQSDLIFFQKKVPGHDKMEFESSLYEGHFLACQKEDDAFKLILKKKDENGDKSVMFTLTNLHQS
notes: as for B4
B5 returned a Kd in experiment [4] of 0.0017 µM. In addition, the “IL-18 BP:Ra Dissociation Constant Ratio” value in experiment [5] is 9.3e+06.

B6: mCS2 (ligand)
chain: HFGRLHCTTAVIRNINDQVLFVDKRQPVFEDMTDIDQSASEPQTRLIIYAYGDSRARGKAVTLSVKDSKMSTLSCKNKIISFEEMDPPENIDDIQSDLIFFQKRVPGHNKMEFESSLYEGHFLACQKEDDAFKLILKKKDENGDKSVMFTLTNLHQS
notes: Murine DR-IL-18 consensus variant; recombinant with C-terminal hexahistidine tag in SPR; fusion and tag not written
In experiment [6], B6 came in with a Kd of 11 µM.

B7: mC1 (ligand)
chain: NFGRLHCTTAVIRNINDQVLFVDKRQPVFEDMTDIDQSASEPQTRLIIYAYVDRRLRGKAVTLSVKDSKMSTLSCKNKIISFEEMDPPENIDDIQSDLIFFQKKVPGHNKMEFESSLYEGHFLACQKEDDAFKLILKKKDENGDKSVMFTLTNLHQS
notes: as for B4
With B7, the Kd in experiment [7] is 29 µM.

Usually EC50 stands for the concentration needed to bring the measured effect to its halfway point. A low value points to an effect from little substance. In general, Kd refers to the constant that tells how readily two partners part at equilibrium.

(Values after patent US20230321192A1 (published 2023).)
